{"source": "patent US20090136977", "proteins": {"B1": {"name": "ATase1 (acetyltransferase 1) with a myc tag at the C-terminus (protein)", "chain": "MAPYHIRKYQESDRKSVVGLLSRGMAEHAPATFRRLLKLPRTLILLLGGALALLLVSGSWILALVFSLSLLPALWFLAKKPWTRYVDIALRTDMSDITKSYLSECGSCFWVGESEEKVVGTVGALPVDDPTLREKRLQLFHLSVDNEHRGQGIAKALVRTVLQFARDQGYSEVVLDTSNIQLSAMGLYQSLGFKKTGQSFFHVWARLVDLHTVHFIYHLPSAQAGRL"}, "B2": {"name": "ATase2 (acetyltransferase 2) with a myc tag at the C-terminus (protein)", "chain": "MAPCHIRKYQESDRQWVVGLLSRGMAEHAPATFRQLLKLPRTLILLLGGPLALLLVSGSWLLALVFSISLFPALWFLAKKPWTEYVDMTLCTDMSDITKSYLSERGSCFWVAESEEKVVGMVGALPVDDPTLREKRLQLFHLFVDSEHRRQGIAKALVRTVLQFARDQGYSEVILDTGTIQLSAMALYQSMGFKKTGQSFFCVWARLVALHTVHFIYHLPSSKVGSL"}}, "key": {"[1]": {"molecular_target": "BACE1Arg (Lys-to-Arg mutant form of BACE1), P56817", "sequence (P56817 other isoform, or with tags, fused parts or gaps mutant)": "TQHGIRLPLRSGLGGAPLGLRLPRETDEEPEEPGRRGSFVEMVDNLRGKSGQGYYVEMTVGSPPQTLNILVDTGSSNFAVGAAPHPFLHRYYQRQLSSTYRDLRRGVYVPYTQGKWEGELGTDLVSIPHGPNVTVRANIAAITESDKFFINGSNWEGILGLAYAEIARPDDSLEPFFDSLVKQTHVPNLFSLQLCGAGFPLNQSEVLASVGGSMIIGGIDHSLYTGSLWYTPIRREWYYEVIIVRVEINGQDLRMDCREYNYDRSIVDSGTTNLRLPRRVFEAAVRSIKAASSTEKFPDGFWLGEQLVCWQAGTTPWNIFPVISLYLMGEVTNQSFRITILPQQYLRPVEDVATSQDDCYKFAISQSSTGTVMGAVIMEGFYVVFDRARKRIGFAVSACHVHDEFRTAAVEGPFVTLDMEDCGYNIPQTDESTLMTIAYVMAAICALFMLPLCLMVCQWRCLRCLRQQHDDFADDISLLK"}, "[2]": {"molecular_target": "affinity purified BACE1 (BACE1-myc, wild type), P56817", "sequence (P56817 22-501)": "as the sequence (P56817 other isoform, or with tags, fused parts or gaps mutant) above, with R105K, R254K, R258K, R264K, R278K, R279K, R286K counted along it"}}}
{"protein": "B1", "values": [{"measurement": "in vitro acetylation of BACE1 with [3H]acetylCoA, scintillation counting", "setting": "[1]", "result": "purified ATase1 was able to acetylate BACE1WT but not BACE1Arg"}, {"measurement": "acetylation of BACE1 with non-radiolabeled acetylCoA, Western blot with anti-acetylated lysine", "setting": "[2]", "result": "clearly indicate that ATase1 can acetylate BACE1"}, {"measurement": "acetyltransferase activity of ERGIC fractions (acceptor: affinity purified BACE1)", "setting": "[2]", "result": "ERGIC fractions from ATase1-expressing cells displayed increased (~2-fold) acetyltransferase activity"}, {"measurement": "average cpm/assay ([3H]acetyl incorporated into BACE1)", "setting": "[2]", "result": "The average cpm/assay for ATase1 was 1737±486"}, {"measurement": "in vitro acetylation of BACE1 with [3H]acetylCoA, scintillation counting", "setting": "[2]", "result": "purified ATase1 was able to acetylate BACE1WT but not BACE1Arg"}]}
{"protein": "B2", "values": [{"measurement": "acetylation of BACE1 with non-radiolabeled acetylCoA, Western blot with anti-acetylated lysine", "setting": "[2]", "result": "there was a marked increase in the acetylation of both the immature and partially-mature forms of BACE1"}]}
